The text below walks through data of US20150299328A1 (ARMAGEN TECHNOLOGIES, published 2015).

Test [1] deals with T1, HIR extracellular domain (ECD) (human, UniProt P06213 28-956, limits assumed).
T1 construct: extracellular domain; also called HIR ECD; IR ECD
The test is described as follows: ELISA, HIR ECD plated. Here is the method:
The extracellular domain (ECD) of the HIR was purified by lectin affinity chromatography from serum free medium conditioned by CHO cells that were permanently transfected with the HIR ECD. The HIR ECD was plated in ELISA wells to bind the chimeric HIRMAb without IDUA fused, and the CHO-derived HIRMAb-IDUA fusion protein. […] The binding constants shown in FIG. 18 were determined by non-linear regression analysis of the binding isotherms.

In test [2] the target is T1, HIR extracellular domain (ECD). The test is described as follows: ELISA, HIR ECD plated, biotinylated goat anti-human IgG detection. Here is the method:
The affinity of the fusion protein for the HIR extracellular domain (ECD) was determined with an ELISA. CHO cells permanently transfected with the HIR ECD were grown in serum free media (SFM), and the HIR ECD was purified with a wheat germ agglutinin affinity column, as previously described in Coloma et al. (2000) Pharm Res, 17:266-274. The HIR ECD was plated on Nunc-Maxisorb 96 well dishes and the binding of the HIR Ab, or the HIR Ab-IDUA fusion protein, to the HIR ECD was detected with a biotinylated goat anti-human IgG (H+L) secondary antibody, followed by avidin and biotinylated peroxidase (Vector Labs, Burlingame, Calif.). The concentration of either HIR Ab or HIR Ab-IDUA fusion protein that gave 50% maximal binding was determined with a non-linear regression analysis.

B1: chimeric HIR Ab (human-mouse chimeric antibody to the human insulin receptor) (antibody, human IgG1, kappa)
heavy: not shown
light: DIQMTQSPSSLSASLGERVSLTCRASQDIGGNLYWLQQGPDGTIKRLIYATSSLDSGVPKRFSGSRSGSDYSLTISSLESEDFVDYYCLQYSSSPWTFGGGTKMEIKRTVAAPSVFIFPPSDEQLKSGTASVVCLLNNFYPREAKVQWKVDNALQSGNSQESVTEQDSKDSTYSLSSTLTLSKADYEKHKVYACEVTHQGLSSPVTKSFNRGEC
notes: Human IgG1 heavy chain constant region and human kappa light chain constant region; also called chimeric HIRMAb; HIRMAb
Consider B1, for which the figures for the EC50 in test [1] and in test [2] were 0.75 nM and 0.61 nM, respectively.

B2: HIR Ab-IDUA fusion protein (COS cell derived; HIR Ab-HC-IDUA fusion/HIR Ab-LC antibody) (antibody, human IgG1, kappa)
heavy: not shown
light: B1 light
notes: Bivalent antibody-enzyme fusion; It was made by dual transfection of COS cells with pHIR Ab-LC and pCD-HC-IDUA; also called HIR Ab-IDUA fusion antibody
With B2, the EC50 in test [2] came to 0.93 nM.
